Where two headings read alike, the source gives them in different places.
Columns and labels:
mono-ubiquitin [1] = biological target: T1, mono-ubiquitin (UniProt P0CG48 1-76); experiment: ITC
mono-ubiquitin [2] = biological target: T1, mono-ubiquitin; experiment: ITC; remark: listed apart in the source

| Binder | binding result (mono-ubiquitin [1]) | binding result (mono-ubiquitin [2]) |
| --- | --- | --- |
| ARGRWACQSCTFENEAAAVLCSICERPRLA (domain or fragment, human, UniProt Q96EP0 350-379, looked up) [HOIP NZF1 (aa350–379)] | binds | – |
| SHARPIN (SHANK-associated RH domain-interacting protein) (natural protein, human, UniProt Q9H0F6 1-387, looked up) MAPPAGGAAAAASDLGSAAVLLAVHAAVRPLGAGPDAEAQLRRLQLSADPERPGRFRLELLGAGPGAVNLEWPLESVSYTIRGPTQHELQPPPGGPGTLSLHFLNPQEAQRWAVLVRGATVEGQNGSKSNSPPALGPEACPVSLPSPPEASTLKGPPPEADLPRSPGNLTEREELAGSLARAIAGGDEKGAAQVAAVLAQHRVALSVQLQEACFPPGPIRLQVTLEDAASAASAASSAHVALQVHPHCTVAALQEQVFSELGFPPAVQRWVIGRCLCVPERSLASYGVRQDGDPAFLYLLSAPREAPATGPSPQHPQKMDGELGRLFPPSLGLPPGPQPAASSLPSPLQPSWSCPSCTFINAPDRPGCEMCSTQRPCTWDPLAAAST | – | binds |
| AASSLPSPLQPSWSCPSCTFINAPDRPGCEMCSTQRPCTWDPLAAAST (domain or fragment, human, UniProt Q9H0F6 340-387, looked up) [SHARPIN NZF (340–387)] | – | binds |

— paper PMC3085511 (Nature, 2011)
